Columns and labels:
[1] = biological target: T1, MBP-Apm1 (S. cerevisiae, UniProt Q00776 1-475); experiment: pull-down
T1 sequence (looked up): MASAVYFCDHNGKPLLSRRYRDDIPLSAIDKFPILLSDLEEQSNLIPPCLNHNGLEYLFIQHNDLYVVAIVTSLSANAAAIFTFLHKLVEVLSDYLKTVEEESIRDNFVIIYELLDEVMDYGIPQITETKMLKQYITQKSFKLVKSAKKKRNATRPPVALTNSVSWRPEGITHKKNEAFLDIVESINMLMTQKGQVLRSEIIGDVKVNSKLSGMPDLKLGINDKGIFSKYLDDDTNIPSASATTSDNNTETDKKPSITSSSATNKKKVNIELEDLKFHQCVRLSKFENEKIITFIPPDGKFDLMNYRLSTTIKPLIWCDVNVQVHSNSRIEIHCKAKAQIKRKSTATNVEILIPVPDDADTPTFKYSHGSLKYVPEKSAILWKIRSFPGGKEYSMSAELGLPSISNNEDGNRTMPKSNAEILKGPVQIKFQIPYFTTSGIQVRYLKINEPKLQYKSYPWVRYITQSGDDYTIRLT

[2] = biological target: T2, MBP–Apm1-Δ2–158 (S. cerevisiae, UniProt Q00776 1-475, Δ2–158); experiment: pull-down
T2 sequence (looked up): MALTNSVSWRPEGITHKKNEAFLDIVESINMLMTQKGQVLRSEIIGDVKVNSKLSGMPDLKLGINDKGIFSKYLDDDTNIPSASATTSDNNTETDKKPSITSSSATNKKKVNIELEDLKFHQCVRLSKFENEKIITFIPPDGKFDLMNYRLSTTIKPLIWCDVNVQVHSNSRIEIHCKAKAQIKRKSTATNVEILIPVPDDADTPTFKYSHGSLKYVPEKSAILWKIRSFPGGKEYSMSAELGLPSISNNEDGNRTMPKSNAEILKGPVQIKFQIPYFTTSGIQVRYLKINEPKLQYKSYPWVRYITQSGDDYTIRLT

B1: Ste13-GST (Ste13p cytosolic domain, residues 1–118, fused to the NH2 terminus of GST) (domain or fragment, S. cerevisiae, UniProt P33894 1-118, looked up)
chain: MSASTHSHKRKNSHLFPQRKSSNSSMDKPFFPNNDSVANTDPQSNENGHTINEIRPTEATIDVTDVPQTPFLQEQYSMRPRRESFQFNDIENQHHTHSFFSVNKFNRRWGEWSLPEKR
binding result [1]: binds | binding result [2]: binds
